Test [1] deals with T1, PCSK9 V domain (450-692 of SEQ ID NO: 3) (human, UniProt Q8NBP7 450-692).
T1 construct: also called v-domain PCSK9
T1 chain: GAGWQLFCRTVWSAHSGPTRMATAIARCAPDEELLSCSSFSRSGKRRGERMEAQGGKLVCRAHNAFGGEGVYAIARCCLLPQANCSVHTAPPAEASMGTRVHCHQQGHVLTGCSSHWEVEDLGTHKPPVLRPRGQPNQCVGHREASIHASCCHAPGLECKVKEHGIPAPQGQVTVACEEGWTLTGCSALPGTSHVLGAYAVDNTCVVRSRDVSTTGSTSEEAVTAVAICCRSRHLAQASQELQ
The test can be described thus: domain binding ELISA. On the technique in general: An ELISA detects its analyte on a solid surface through an enzyme-linked reagent.

Test [2] addresses T2, mouse PCSK9 (mouse, UniProt Q80W65 35-694, limits assumed).
T2 construct: biotinylated, tag not mentioned, in the hybridoma screen; also called mPCSK9-8xHIS; mPCSK9
Put plainly: KinExA solution equilibrium. On the technique in general: Kinetic exclusion samples the free partner from a solution-phase mixture.

Test [3] addresses T2, mouse PCSK9. The test can be described thus: BIAcore, antibody immobilised, pH 7.4.
Test [4] addresses T3, human PCSK9 (proprotein convertase subtilisin kexin type 9) (human, UniProt Q8NBP7 31-692).
T3 construct: Used untagged, biotinylated, V5/His- or His-tagged depending on the assay; also called hPCSK9; huPCSK9
The test can be described thus: BIAcore solution equilibrium, pH 5.5.

Test [5] addresses T3, human PCSK9 (proprotein convertase …). The test can be described thus: BIAcore solution equilibrium, pH 6.0.
For test [6] the target is unchanged. Put plainly: BIAcore solution equilibrium, pH 7.4; pH 7.4. For orientation: SPR reads the build-up and loss of mass on a sensor chip optically.
The target is the same in test [7]. Put plainly: BIAcore kinetic assay 1, His-tagged huPCSK9 captured, pH 5.5.
Test [8] has the same target. The test can be described thus: BIAcore kinetic assay 1, His-tagged huPCSK9 captured, pH 6.0.
Test [9] has the same target. Put plainly: BIAcore kinetic assay 1, His-tagged huPCSK9 captured, pH 7.4.
Test [10] addresses T2, mouse PCSK9. Put plainly: BIAcore solution equilibrium.

B1: 3C4 (antibody, V domains shown)
VH: QVQLQESGPGLVKPSQTLSLTCTVSGGSISSSDYYWSWIRQHPGKGLEWIGYIYYSGSTYYNPSLKSRITISVDTSKNLFSLKLSSVTAADTAVYYCARGGVTTYYYAMDVWGQGTTVTVSS
VL: DIQMTQSPSSLSASVGDRVTITCRASQRISNYLSWYLQKPGIAPKLLIYAASSLQSGVPSRFSGSGSGTDFTLTISSLQSEDFATYYCQQSYSTPLIFGGGTKVEIK
For the molecule B1, the binding result in test [1] is listed as “binds”.

B2: 16F12, anti-PCSK9 huIgG4 (antibody, V domains shown)
VH: QVHLVESGGGVVQPGRSLRLSCAASGFTFNSFGMHWVRQAPGKGLEWVALIWSDGSDEYYADSVKGRFTISRDNSKNTLYLQMNSLRAEDTAVYYCARAIAALYYYYGMDVWGQGTTVTVSS
VL: QSVLTQPPSVSAAPGQKVTISCSGSSSNIGNNFVSWYQQLPGTAPKLLIYDYNKRPSGIPDRFSGSKSGTSATLGITGLQTGDEADYYCGTWDSSLSAYVFGTGTRVTVLQ
notes: from hybridoma; also called 16F12 IgG4; 16F12.1
For orientation: Kd means the concentration at which binding is half-saturated. As for B2, the Kd was 0.223 nM with mouse PCSK9 [2] and 6.4 nM in the test with mouse PCSK9 [3].

B3: 9C9 (antibody, V domains shown)
VH: EVQLVESGGGLVQPGGSLRLSCVVSGFTFSSYWMSWVRQAPGKGLEWVANIKQDGSEKYYVDSVKGRFTISRDNAKNSLYLQMNSLRAEDTAVYYCARESNWGFAFDIWGQGTMVTVSS
VL: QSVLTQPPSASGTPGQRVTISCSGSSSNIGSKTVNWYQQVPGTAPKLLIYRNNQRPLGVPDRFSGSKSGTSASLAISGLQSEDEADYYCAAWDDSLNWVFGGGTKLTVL
Take B3: the Kd amounted to 3.2 nM in test [4]; 2.3 nM in test [5]; 0.56 nM in [6]; 3.2 nM in [7]; 2.3 nM in test [8]; 0.56 nM in [9].

B4: 21B12, anti-PCSK9 huIgG4 (antibody, V domains shown)
VH: QVQLVQSGAEVKKPGASVKVSCKASGYTLTSYGISWVRQAPGQGLEWMGWVSFYNGNTNYAQKLQGRGTMTTDPSTSTAYMELRSLRSDDTAVYYCARGYGMDVWGQGTTVTVSS
VL: QSALTQPASVSGSPGQSITISCTGTSSDVGGYNSVSWYQQHPGKAPKLMIYEVSNRPSGVSNRFSGSKSGNTASLTISGLQAEDEADYYCNSYTSTSMVFGGGTKLTVLQ
notes: from hybridoma; also called 21B12 IgG4; 21B12.1
B4: the Kd is 17 nM with mouse PCSK9 [10] and 460 nM in the test with mouse PCSK9 [3].

The values are drawn from patent publication US20130072665A1 (Amgen, published 2013).
